Measurements from publication doi:10.1101/271593 (bioRxiv, 2018).

B1: HsMTHFR_(1-656) treated with calf intestine alkaline phosphatase (dephosphorylated) (enzyme)
chain: not shown
B2: HsMTHFR_(38-644) (domain or fragment)
chain: not shown

Tests used:
[1] = target: the molecule itself; assay: native MS
[2] = target: the molecule itself; assay: crystal structure

| Protein | stoichiometry N [1] | stoichiometry N [2] |
| --- | --- | --- |
| B1 | 2 | – |
| B2 | – | 2 |
